From patent publication US20150315278A1 (Chugai, published 2015)

B1: H15L4 antibody (antibody, V domains shown)
VH: QVQLVQSGAEVKKPGASVKVSCKASGYTFTDYEMHWIRQPPGQGLEWIGAIDPKTGDTAYSQKFKGRVTLTADKSTSTAYMELSSLTSEDTAVYYCTRFYSYTYWGQGTLVTVSS
VL: DIVMTQSPLSLPVTPGEPASISCRSSQSLVHSNRNTYLHWYQQKPGQAPRLLIYKVSNRFSGVPDRFSGSGSGTDFTLKISRVEAEDVGVYYCSQNTHVPPTFGQGTKLEIK
notes: Point-mutation modified form of H0L0
B2: Hspd1.8Lspd1.6 (Hd1.8Ld1.6) antibody (antibody, V domains shown)
VH: QVQLVQSGAEVKKPGASVTVSCKASGYTFTDYEMHWIRQPPGEGLEWIGAIDPKTGDTAYSQSFQDRVTLTADKSTSTAYMELSSLTSEDTAVYYCTRFYSYTYWGQGTLVTVSS
VL: DIVMTQSPLSLPVTPGEPASISCRASESLVHSNRNTYLHWYQQKPGQAPRLLIYKVSNRFSGVPDRFSGSGSGTDFTLTISSLQAEDVGVYYCSQNTHVPPTFGQGTKLEIK
notes: Lowered-pI variant; Hspd1.8 = H15 + K19T, Q43E, K63S, K65Q, G66D; Lspd1.6 = L4 + Q27E, KISRVE(79-84) to TISSLQ, S25A
B3: Hspu2.2Lspu2.2 (Hu2.2Lu2.2) antibody (antibody, V domains shown)
VH: QVQLVQSGAEVKKPGASVKVSCKASGYTFTDYEMHWIRQPPGKGLEWIGAINPKTGDTAYSQKFKGRVTLTADKSTSTAYMELSSLTSEDTAVYYCTRFYSYTYWGRGTLVTVSS
VL: DIVMTQSPLSLPVTPGQPASISCRASRSLVHSNRNTYLHWYQQKPGQAPRLLIYKVSNRFSGVPDRFSGSGSGTDFTLKISRVEAEDVGVYYCSQNTHVPPTFGRGTKLEIK
notes: Raised-pI variant; Hspu2.2 = H15 + Q43K, D52N, Q107R; Lspu2.2 = L4 + E17Q, Q27R, Q105R, S25A
B4: humanized H0L0 antibody (antibody, V domains shown)
VH: QVQLVQSGAEVKKPGASVKVSCKASGYTFTDYEMHWVRQAPGQGLEWMGALDPKTGDTAYSQKFKGRVTLTADKSTSTAYMELSSLTSEDTAVYYCTRFYSYTYWGQGTLVTVSS
VL: DVVMTQSPLSLPVTPGEPASISCRSSQSLVHSNRNTYLHWYLQKPGQSPQLLIYKVSNRFSGVPDRFSGSGSGTDFTLKISRVEAEDVGVYYCSQNTHVPPTFGQGTKLEIK
notes: the light chain constant region is not specified; also called humanized GC33 antibody
B5: pH7pL14 antibody (antibody, V domains shown)
VH: QVQLVQSGAEVKKPGASVTVSCKASGYTFTDYEMHWIRQPPGEGLEWIGAIDPKTGDTAYSESFQDRVTLTADKSTSTAYMELSSLTSEDTAVYYCTRFYSYTYWGQGTLVTVSS
VL: DIVMTQSPLSLPVTPGEPASISCQASESLVHSNRNTYLHWYLQKPGQSPQLLIYKVSNRFSGVPDRFSGSGSGTDFTLKISRVEAEDVGVYYCSQNTHVPPTFGQGTKLEIK
B6: H0M85L0 antibody (antibody, human IgG1, V domains shown)
VH: QVQLVQSGAEVKKPGASVKVSCKASGYTFTDYEMHWVRQAPGQGLEWMGALDPKTGDTAYSQKFKGRVTLTADKSTSTAYMELSSLTSEDTAVYYCTRFYSYTYWGQGTLVTVSS
VL: DVVMTQSPLSLPVTPGEPASISCRSSQSLVHSNRNTYLHWYLQKPGQSPQLLIYKVSNRFSGVPDRFSGSGSGTDFTLKISRVEAEDVGVYYCSQNTHVPPTFGQGTKLEIK
notes: its constant region is not specified
B7: pH7pL16 antibody (antibody, IgG1, V domains shown)
VH: QVQLVQSGAEVKKPGASVTVSCKASGYTFTDYEMHWIRQPPGEGLEWIGAIDPKTGDTAYSESFQDRVTLTADKSTSTAYMELSSLTSEDTAVYYCTRFYSYTYWGQGTLVTVSS
VL: DIVMTQSPLSLPVTPGEPASISCQASESLVHSNRNTYLHWYLQKPGQSPQLLIYKVSNRFSGVPDRFSGSGSGTDFTLKISRVEAEDVGVYYCSQNTHVPPTFGQGTKVEIE
notes: Variable regions only
B8: pH7M85pL16 antibody (antibody, human IgG1, V domains shown)
VH: QVQLVQSGAEVKKPGASVTVSCKASGYTFTDYEMHWIRQPPGEGLEWIGAIDPKTGDTAYSESFQDRVTLTADKSTSTAYMELSSLTSEDTAVYYCTRFYSYTYWGQGTLVTVSS
VL: DIVMTQSPLSLPVTPGEPASISCQASESLVHSNRNTYLHWYLQKPGQSPQLLIYKVSNRFSGVPDRFSGSGSGTDFTLKISRVEAEDVGVYYCSQNTHVPPTFGQGTKVEIE
notes: its constant region is not specified; also called pH7M85pL6 [sic]

Key:
[1] = biological target: T1, soluble GPC3 core polypeptide (Homo sapiens (Human), UniProt P51654 25-563); experiment: competitive ELISA against biotinylated H0L0 on immobilized soluble GPC3 core (FIG. 4)
T1 construct: Immobilized on the ELISA plate at 1 ug/mL; also called glypican 3 antigen; glypican 3
T1 sequence (P51654 other isoform, or with tags, fused parts or gaps limits assumed): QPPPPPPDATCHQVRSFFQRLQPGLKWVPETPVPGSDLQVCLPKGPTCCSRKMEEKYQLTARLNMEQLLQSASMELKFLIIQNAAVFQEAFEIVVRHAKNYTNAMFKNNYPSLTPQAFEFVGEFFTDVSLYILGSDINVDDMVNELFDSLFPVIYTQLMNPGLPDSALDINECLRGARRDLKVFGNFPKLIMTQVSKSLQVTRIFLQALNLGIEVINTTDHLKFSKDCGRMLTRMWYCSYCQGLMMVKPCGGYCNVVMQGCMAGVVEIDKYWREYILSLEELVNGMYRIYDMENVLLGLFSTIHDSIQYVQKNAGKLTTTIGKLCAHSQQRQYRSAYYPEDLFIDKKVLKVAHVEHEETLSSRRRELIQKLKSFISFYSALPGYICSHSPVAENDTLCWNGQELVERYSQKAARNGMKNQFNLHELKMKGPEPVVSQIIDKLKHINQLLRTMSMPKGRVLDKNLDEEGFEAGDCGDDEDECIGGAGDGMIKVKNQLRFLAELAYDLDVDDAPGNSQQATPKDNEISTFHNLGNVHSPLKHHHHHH
Description: (§1) The H0L0 antibody and its point mutation-modified antibodies purified in (1) was evaluated by competitive ELISA. 100 μL of the soluble GPC3 core polypeptide (SEQ ID NO: 13) at 1 μg/mL was added to each well of a 96-well plate. The soluble GPC3 core polypeptide was immobilized on the plate by allowing the plate to stand overnight at 4° C. The soluble GPC3 core polypeptide immobilized on the plate was washed 3 times with a washing buffer using Skan WASHER400 (Molecular Devices); and blocked with 200 μL blocking buffer at 4° C. for at least 30 min. The blocked plate on which soluble GPC3 core polypeptide was immobilized was then washed 3 times with washing buffer using the Skan WASHER400. Subsequently, each well of the plate received 200 μL of a mixture containing 100 μL of biotinylated H0L0 antibody (final concentration=0.3 μg/mL) and 100 μL of the H0L0 antibody or its point mutation-modified antibody (at various concentrations). The H0L0 antibody was biotinylated using Biotin Labeling Kit (Roche) according to the instructions provided with the kit. The plate was left stand for 1 hour at room temperature, then washed 5 times with washing buffer using the Skan WASHER400 (Molecular Devices). […] The absorbance at 405 nm of the reaction solution in each well was measured using Benchmark Plus (BIO-RAD), with the control absorbance at 655 nm.

[2] = biological target: T1, soluble GPC3 core polypeptide; experiment: competitive ELISA against biotinylated H0L0 on immobilized soluble GPC3 core (FIG. 6)
Description: as §1

[3] = biological target: T1, soluble GPC3 core polypeptide; experiment: competitive ELISA against biotinylated H0L0 on immobilized soluble GPC3 core (FIG. 5)
Description: as §1

[4] = biological target: T1, soluble GPC3 core polypeptide; experiment: competitive ELISA against biotinylated H0L0 on immobilized soluble GPC3 core (FIG. 14)
Description: The H0L0 antibody and its point mutation-modified antibodies purified in (1) was evaluated by competitive ELISA. 100 μL of the soluble GPC3 core polypeptide (SEQ ID NO: 13) at 1 μg/mL was added to each well of a 96-well plate. The soluble GPC3 core polypeptide was immobilized on the plate by allowing the plate to stand overnight at 4° C. The soluble GPC3 core polypeptide immobilized on the plate was washed 3 times with a washing buffer using Skan WASHER400 (Molecular Devices); and blocked with 200 μL blocking buffer at 4° C. for at least 30 min. The blocked plate on which soluble GPC3 core polypeptide was immobilized was then washed 3 times with washing buffer using the Skan WASHER400. Subsequently, each well of the plate received 200 μL of a mixture containing 100 μL of biotinylated H0L0 antibody (final concentration=0.3 μg/mL) and 100 μL of the H0L0 antibody or its point mutation-modified antibody (at various concentrations). The H0L0 antibody was biotinylated using Biotin Labeling Kit (Roche) according to the instructions provided with the kit. The plate was left stand for 1 hour at room temperature, then washed 5 times with washing buffer using the Skan WASHER400 (Molecular Devices). 100 μL goat anti-streptavidin alkaline phosphatase (ZYMED), diluted 20,000× with substrate buffer, was added to each well, and the resulting plate was left stand for 1 hour at room temperature, and then washed 5 times with washing buffer using the Skan WASHER400. Phosphatase Substrate (Sigma) was prepared at 1 mg/mL in the substrate buffer, added at 100 μL per well for 1 hour. The absorbance at 405 nm of the reaction solution in each well was measured using Benchmark Plus (BIO-RAD), with the control absorbance at 655 nm.
The binding activity to the antigen of each constant region pI modified antibody was measured using the method described in Example 1 (FIG. 14).

[5] = biological target: T1, soluble GPC3 core polypeptide; experiment: competitive ELISA against biotinylated H0L0 on immobilized soluble GPC3 core (FIG. 10)
Description: as §1, with “kit.” for “kit. The plate was left stand for 1 hour at room temperature, then washed 5 times with washing buffer using the Skan WASHER400 (Molecular Devices).”
The binding activity to the antigen glypican 3 of each point mutation pI modified antibody was measured using the method described in Example 1 (FIG. 10).

| Binder | binding result [4] | also measured |
| --- | --- | --- |
| B1 |  | binding result [1]: binds |
| B2 |  | binding result [2]: binds |
| B3 |  | binding result [3]: binds |
| B4 | binds |  |
| B5 |  | binding result [5]: binds |
| B6 | binds |  |
| B7 | binds |  |
| B8 | binds |  |
